Laboratory results: the supplement of paper PMC10567573

B1: RHOBTB3 (parent)
chain: VSHVFMLLFNVKSPTDIQDSSIIR

Variants of: B1
Experiment: protein stability index of a GFP-peptide fusion (GPS, HEK-293T) (PSI 1-6); higher = more stable
Conditions: c terminus: a fixed tail appended
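Further: lentivirally expressed fusions sorted by FACS into six bins by GFP to DsRed ratio, PSI derived from sequencing read proportions per bin multiplied by bin number.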

Protein stability index of substitutions, site by site:
N10: H 3.06 | C 1.43 | A 2.47 | L 3.27 | V 2.13 | G 2.24 | W 3.77 | T 2.15 | P 2.3 | D 3.9 | I 2.19
Q18: K 2.82 | P 3.69 | N 1.19 | S 3.12 | Y 3.89 | D 4.62 | V 3.53 | H 2.48 | E 2.79 | C 2.77 | W 3.42 | A 3.32 | F 2.75 | T 2.57
F9: Y 4.01
D19: A 3.48 | F 2.28 | N 2.96 | R 3.06 | I 3.28 | H 3.04 | Q 2.96 | K 2.3 | M 4.57 | T 3.05 | P 2.41 | S 2.93 | E 3.13 | L 1.89
I22: N 1.66 | L 2.98 | F 2.15 | D 2.8 | P 3.69 | Q 2.63 | C 2.08
P14: D 2.34 | W 3.15 | K 2.58 | V 3.52 | H 2.54 | G 4.07 | E 2.14 | S 3.49 | I 3.62 | C 5.86 | L 2.04 | M 1.72 | Y 3.96 | F 3.75 | A 3.26
V11: P 2.94 | S 3.03 | W 2.83 | G 3.8 | F 2.74 | H 3.04 | D 1.23 | L 4.23 | R 3.03 | M 3.81 | I 3.24 | Q 1.82 | N 3.13 | C 3.03 | E 2.08
D16: R 3.86 | S 2.63 | H 3.02 | M 3.75 | C 2.82 | N 3.77 | L 2.16 | T 2.99 | A 2.52 | F 1.93 | Y 3.61 | E 2.96
K12: Q 2.78 | A 5.33 | V 4.26 | H 2.15 | M 3.63 | D 2.5 | T 1.98 | G 3.36 | L 1.46 | Y 1.81 | W 4.11 | C 1.55 | R 3.32 | E 1.8 | N 1.99 | I 3.28
T15: G 2.76 | Y 2.63 | S 5.07 | F 3.38 | L 2.3 | W 1.62 | N 3.26 | R 4.51 | K 5.21 | I 2.23 | C 3.31 | V 3.4
S13: Y 2.31 | C 4.63 | E 2.99 | I 4.29 | K 2.17 | T 3.82 | H 2.37 | L 3.37 | F 3.32 | M 3.52 | D 2.36
I17: L 2.92 | Y 1.66 | P 2.88 | S 1.18 | N 2.1 | W 3.63 | H 2.01 | C 3.7 | K 1.51 | Q 1.58 | R 3.58 | T 2.71 | E 1.9 | V 2.81
S20: I 2.98 | H 2.49 | K 1.33 | M 3.1 | A 2.66 | T 2.05 | D 2.91 | W 3.16 | Q 3.34 | Y 2.66 | R 1.66 | F 2.79 | P 3.04
S21: V 2.27 | I 2.74 | F 3.07 | C 3.76 | K 1.84 | Q 4.13 | T 3.42 | W 3.54 | H 2.35 | Y 3.45 | M 2.9 | G 3.46
